Measured values published in patent US11453711B2, “Fusion proteins of GLP-1 and GDF15 and conjugates thereof” (BEIJING QL BIOPHARMACEUTICAL CO., LTD., priority 2019, dated 2022).

B1: MLC018: fusion polypeptide SEQ ID NO: 265 conjugated with Moiety A at 52K of Linker (conjugate)
chain: HGEGTFTSDVSSYLEEQAAREFIAWLVRGGGGQEPGAQPGQEPGAQPGQEPGAQPGQEPGAQPGQEPGAQPGQEPGAQPGQEKGAQPGQEPGAQPGQEPGAQPGQEPGAQPARQGDHCPLGPGRCCRLHTVRASLEDLGWADWVLSPREVQVTMCIGACPSQFRAANLHAQIKTSLHRLRPDTVPAPCCVPASYNPMVLIQRTDTGVSLQTYDDLLARDCHCI
modifications: Moiety A conjugated at linker K52
B2: MLC064: fusion polypeptide SEQ ID NO: 359 conjugated with Moiety A at 51K of Linker (conjugate)
chain: HGEGTFTSDVSSYLEEQAAREFIAWLVRGGGGQEPGAQPGQEPGAQPGQEPGAQPGQEPGAQPGQEPGAQPGQEPGAQPGAKPGAQPGAQPGAQPGAQPGAQPGAQPGAQPARQGDHCPLGPGRCCRLHTVRASLEDLGWADWVLSPREVQVTMCIGACPSQFRAANLHAQIKTSLHRLRPDTVPAPCCVPASYNPMVLIQRTDTGVSLQTYDDLLARDCHCI
modifications: Moiety A conjugated at linker K51
B3: MLC046: fusion polypeptide SEQ ID NO: 329 conjugated with Moiety A at 60K of linker (conjugate)
chain: HGEGTFTSDVSSYLEEQAAREFIAWLVRGGGGQEPGAQPGQEPGAQPGQEPGAQPGQEPGAQPGQEPGAQPGQEPGAQPGAQPGAQPGAQKGAQPGAQPGAQPGAQPGAQPARQGDHCPLGPGRCCRLHTVRASLEDLGWADWVLSPREVQVTMCIGACPSQFRAANLHAQIKTSLHRLRPDTVPAPCCVPASYNPMVLIQRTDTGVSLQTYDDLLARDCHCI
modifications: Moiety A conjugated at linker K60
B4: MLC104: fusion polypeptide SEQ ID NO: 391 conjugated with Moiety A at 76K of Linker (conjugate)
chain: HGEGTFTSDVSSYLEEQAAREFIAWLVRGGGGQEPGAQPGQEPGAQPGQEPGAQPGQEPGAQPGQEPGAQPGQEPGAQPGAQPGAQPGAQPGAQPGAQPGAQPGAQKGAQPARQGDHCPLGPGRCCRLHTVRASLEDLGWADWVLSPREVQVTMCIGACPSQFRAANLHAQIKTSLHRLRPDTVPAPCCVPASYNPMVLIQRTDTGVSLQTYDDLLARDCHCI
modifications: Moiety A conjugated at linker Lys76
B5: MLC103: fusion polypeptide SEQ ID NO: 390 conjugated with Moiety A at 71K of Linker (conjugate)
chain: HGEGTFTSDVSSYLEEQAAREFIAWLVRGGGGQEPGAQPGQEPGAQPGQEPGAQPGQEPGAQPGQEPGAQPGQEPGAQPGAQPGAQPGAQPGAQPGAQPGAKPGAQPGAQPARQGDHCPLGPGRCCRLHTVRASLEDLGWADWVLSPREVQVTMCIGACPSQFRAANLHAQIKTSLHRLRPDTVPAPCCVPASYNPMVLIQRTDTGVSLQTYDDLLARDCHCI
modifications: Moiety A conjugated at linker Lys71
B6: MLC045: fusion polypeptide SEQ ID NO: 328 conjugated with Moiety A at 1K and 55K of Linker (conjugate)
chain: HGEGTFTSDVSSYLEEQAAREFIAWLVRGGGKQEPGAQPGQEPGAQPGQEPGAQPGQEPGAQPGQEPGAQPGQEPGAQPGAQPGAKPGAQPGAQPGAQPGAQPGAQPGAQPARQGDHCPLGPGRCCRLHTVRASLEDLGWADWVLSPREVQVTMCIGACPSQFRAANLHAQIKTSLHRLRPDTVPAPCCVPASYNPMVLIQRTDTGVSLQTYDDLLARDCHCI
modifications: Moiety A conjugated at linker K1, K55
B7: MLC080: fusion polypeptide SEQ ID NO: 374 conjugated with Moiety B at 35C of Linker (conjugate)
chain: HGEGTFTSDVSSYLEEQAAKEFIAWLVRGGGGQEPGAQPGQEPGAQPGQEPGAQPGQEPGAQPGQCPGAQPGQEPGAQPGQEPGAQPGAQPGAQPGAQPGAQPGAQPGAQPARQGDHCPLGPGRCCRLHTVRASLEDLGWADWVLSPREVQVTMCIGACPSQFRAANLHAQIKTSLHRLKPDTVPAPCCVPASYNPMVLIQKTDTGVSLQTYDDLLAKDCHCI
modifications: Moiety B conjugated at linker C35
B8: MLC030: fusion polypeptide SEQ ID NO: 277 conjugated with Moiety A at 15K of Linker (conjugate)
chain: HGEGTFTSDVSSYLEEQAAREFIAWLVRGGGGQEPGQEPGQEPGQKPGQEPGQEPGQEPGQEPGAQPGAQPGAQPGAQPGAQPGAQPGAQPGAQPGAQPGAQPGAQPGAQPARQGDHCPLGPGRCCRLHTVRASLEDLGWADWVLSPREVQVTMCIGACPSQFRAANLHAQIKTSLHRLRPDTVPAPCCVPASYNPMVLIQRTDTGVSLQTYDDLLARDCHCI
modifications: Moiety A conjugated at linker K15
B9: MLC027: fusion polypeptide SEQ ID NO: 274 conjugated with Moiety A at 55K of Linker (conjugate)
chain: HGEGTFTSDVSSYLEEQAAREFIAWLVRGGGGAQPGAQPGAQPGAQPGAQPGAQPGAQPGAQPGQEPGAQPGQEPGAQPGQEPGQKPGQEPGQEPGQEPGQEPGAQPGAQPARQGDHCPLGPGRCCRLHTVRASLEDLGWADWVLSPREVQVTMCIGACPSQFRAANLHAQIKTSLHRLRPDTVPAPCCVPASYNPMVLIQRTDTGVSLQTYDDLLARDCHCI
modifications: Moiety A conjugated at linker K55
B10: MLC012: fusion polypeptide SEQ ID NO: 259 conjugated with Moiety A at 12K of Linker (conjugate)
chain: HGEGTFTSDVSSYLEEQAAREFIAWLVRGGGGQEPGQEPGQEKGQEPGQEPGQEPGQEPGQEPGQEPGQEPARQGDHCPLGPGRCCRLHTVRASLEDLGWADWVLSPREVQVTMCIGACPSQFRAANLHAQIKTSLHRLRPDTVPAPCCVPASYNPMVLIQRTDTGVSLQTYDDLLARDCHCI
modifications: Moiety A conjugated at linker K12
B11: MLC043: fusion polypeptide SEQ ID NO: 326 conjugated with Moiety A at 26K of GLP-1 (conjugate)
chain: HGEGTFTSDVSSYLEEQAAKEFIAWLVRGGGGQEPGAQPGQEPGAQPGQEPGAQPGQEPGAQPGQEPGAQPGQEPGAQPGAQPGAQPGAQPARQGDHCPLGPGRCCRLHTVRASLEDLGWADWVLSPREVQVTMCIGACPSQFRAANLHAQIKTSLHRLRPDTVPAPCCVPASYNPMVLIQRTDTGVSLQTYDDLLARDCHCI
modifications: Moiety A conjugated at K26
B12: MLC014: negative control, SEQ ID NO: 261: linker fused to N terminal of GDF15, CRM conjugated to lysine in the linker; GDF15 derivative (conjugate)
chain: SEPATSGQEKGQEPGQEPGQEPGQEPGQEPGAQPGAQPARQGDHCPLGPGRCCRLHTVRASLEDLGWADWVLSPREVQVTMCIGACPSQFRAANLHAQIKTSLHRLRPDTVPAPCCVPASYNPMVLIQRTDTGVSLQTYDDLLARDCHCI
modifications: CRM conjugated to linker lysine
notes: GDF15 derivative

Assay: Body weight and food intake in C57BL/6 mice, fusion protein conjugates, 30 nmol/kg daily 10 days
Assay type: in vivo
Procedure: 10 week old male C57BL/6 mice were injected everyday subcutaneously with 15 nmol/kg of the fusion protein conjugates (i.e., MLC002, MLC 004, MLC 005, MLC 006, MLC 007, MLC 008, and MLC 009) for 14 days. Food intake and body weight were measured daily and five animals were used for each treatment group. Body weight (BW) was monitored for each individual animal, but food intake for each group animals was measured together. Day 1 and Day 14 are first day and last day of molecule dosage. % BW loss=100*(BW on Day n-BW on Day 1)/(BW on Day 1). Cumulative food intake on Day n represents sum of food intake from Day 1 to Day n. Data are indicated as mean values and standard error (SEM) or pooled values. Statistical analysis was performed by One-way ANOVA. Body weight reduction on Day 11 is calculated by −1*(% BW loss−% BW loss of vehicle group); Cumulative food intake reduction is calculated by −100*(cumulative food intake-cumulative food intake of vehicle)/cumulative food intake of vehicle.
Data were calculated in the same way as described above. Day 1 and Day 10 are first day and last day of the administration.
MLC014 was used as a negative control. MLC014 has an amino acid sequence of SEQ ID NO: 261, which contains a linker fused to the N terminal of GDF15, with a CRM conjugated to the lysine residue in the linker. Tirzepatide was also used as a control.

Molecule | Body weight reduction at 30 nmol/kg (% reduction compared to vehicle)(Day11) [%] | Cumulative food intake reduction at 30 nmol/kg (% reduction compared to vehicle)(Day11) [%]
Tirzepatide [reference compound] | 10.5 | 23.0
B1 | 23.5 | 48.1
B2 | 24.0 | 43.6
B3 | 24.6 | 41.4
B4 | 22.7 | 29.4
B5 | 23.3 | 36.2
B6 | 20.6 | 27.8
B7 | 17.2 | 33.2
B8 | 22.0 | 29.1
B9 | 19.1 | 40.7
B10 | 30.6 | 37.2
B11 | 17.4 | 30.5
B12 | 9.5 | 27.3
